We go through four substances from patent US20220332769A1.

Some results are limits rather than exact numbers.

Common to all, as to experiment: cell-based or functional assay
Test [1] addresses MERS spike on pseudotyped lentivirus (MERS-PVP) (MERS coronavirus) (UniProt K9N5Q8).
In test [2] the target is Spike protein of live SARS CoV-2 virus (original USA-WA1/2020 strain) (SARS CoV-2) (UniProt P0DTC2).
Test [3] deals with SARS CoV-1 spike on pseudotyped lentivirus (CoV-1 PVP) (SARS CoV-1) (UniProt P59594).

“NA75-DPP4 MVP (DPP4 extracellular domain fused to influenza neuraminidase N-terminus and transmembrane regions) (from UniProt P27487 30-766)” had an IC50, MERS pseudovirus neutralization assay, H1650 target cells in test [1] of 0.87 pM.
Substance “Recombinant DPP4 protein (from UniProt P27487 39-766) (receptor)” showed an IC50, MERS pseudovirus microneutralization assay, H1650 target cells in test [1] of over 48000 pM.
The substance “HCΔ-DPP4 MVP (decoy multivalent particle displaying DPP4 extracellular domain fused to measles HCΔ18)” gave an IC50, MERS pseudovirus microneutralization assay, H1650 target cells in test [1] of 2.96 pM.
In test [2], “ACE2-VGTM MVP (decoy multivalent particle displaying ACE2 fused with VSVG transmembrane domain)” registered an IC50, live CoV-2 virus microneutralization assay of 57 pM; an IC50, live virus PRNT assay, USA-WA1/2020 strain of 0.98 pM; a reduction of viral titer, live CoV-2 virus microneutralization assay of over 6 logs. Also, in test [3], the IC50, CoV-1 pseudovirus microneutralization assay, 293T/ACE2 target cells worked out at 0.13 pM and the IC50, CoV-1 pseudovirus neutralization assay, VERO-E6 target cells came out at 0.44 pM.
